# From patent US20090203610A1, “METHODS OF TREATING OBESITY OR DIABETES USING NT-4/5” (RINAT NEUROSCIENCE CORPORATION, priority 2004, published 2009)
# B1: NT-4/5: mature human neurotrophin-4/5 (SEQ ID NO:1), obtained from Genentech or produced in E. coli (protein, listed as Homo sapiens)
# chain: GVSETAPASRRGELAVCDAVSGWVTDRRTAVDLRGREVEVLGEVPAAGGSPLRQYFFETRCKADNAEEGGPGAGGGGCRGVDRRHWVSECKAKQSYVRALTADAQGRVGWRWIRIDTACVCTLLSRTGRA
# What was measured:
# [1] = test system: db/db mice; test: Body weight of db/db mice (Example 1); format: in vivo; details: NT-4/5 20 mg/kg s.c., Rosiglitazone 3 mg/kg p.o.
# Method: Throughout the experiment period (T1-T26), daily individual body weights as well as food intake per cage were measured.
# [2] = test system: db/db mice; test: Serum nonesterified fatty acids (NEFA) in db/db mice (Example 1); format: in vivo
# Method: (§1) A difference was considered significant for p<0.05.
# Serum nonesterified fatty acids (NEFA) levels were determined by calorimetric method using a non esterified fatty acids kit (ref. FA 15, Randox, France).
# [3] = test system: db/db mice; test: Blood glucose levels in db/db mice (Example 1); format: in vivo
# Method: Administration of NT-4/5 and reference substances: Rosiglitazone (3 mg/kg, Sequoia Research Products Ltd., UK), a thiazolidinedione compound for the therapy of type 2 diabetes, was used in the present experiment as a reference. Phosphate buffer saline was used as vehicle in this experiment. NT-4/5 was obtained from Genentech.
# as §1
# [4] = test system: db/db mice; test: Blood triglyceride levels in db/db mice (Example 1); format: in vivo
# Method: Test animals: 24 female 10-12 weeks old db/db mice (C57BL/Ks J Rj-db/db, Janvier, France), weighing in the target range of 40-50 g, were used in this study. […] Upon receipt at animal facilities, they were housed 4 per cage covered with filtered caps and at least a 5-day acclimation period was observed.
# (§2) The mice were divided into three groups of 8 mice each (groups 1-3). Each group was treated with vehicle (PBS) subcutaneously (s.c.), 3 mg/kg Rosiglitazone orally (p.o.), or 20 mg/kg NT-4/5 subcutaneously (s.c.). From day 1 to day 5 (T1-T5) and then from day 8 to day 12 (T8-T12), the mice in groups 2 and 3 were dosed once daily for 5 consecutive days, with a volume of 10 ml/kg.
# Collection of samples for analysis: One day before beginning the treatment (T0), non fasted db/db mice were weighed and blood samples were collected through the retro-orbital plexus (about 300 μL/mouse) under isoflurane anesthesia. Similarly, at day 5 (T5), day 12 (T12), day 19 (T19) and day 26 (T26), two hours after the last administration, blood samples were collected through the retro-orbital plexus under isoflurane anesthesia in non fasted mice. […] An aliquot of serum was used for measuring glucose levels, the remaining was frozen until use.
# (§3) Analysis of blood samples in db/db mice: Pre- and post dose serum levels of glucose, HbA1c, cholesterol and triglycerides, insulin, and non esterified fatty acids (NEFA), as well as aspirate amino-transferase (AST) and alanine amino-transferase activities (ALT) activities, were determined at different time points, as described further herein. At each time point and for each parameter, a mean % of the effect was calculated according to the following formula: ((T final−T initial)/T initial)*100. Statistical analysis was consistent in a one-way analysis of variance followed by multiple comparisons versus the vehicle group (Dunnett's test) on final values. In case the equal variance test fails, a Kruskall-Wallis one-way analysis of variance on ranks was conducted. A difference was considered significant for p<0.05.
# [5] = test system: db/db mice; test: Serum transaminase (AST, ALT) activity in db/db mice (Example 1)
# Method: Test animals: 24 female 10-12 weeks old db/db mice (C57BL/Ks J Rj-db/db, Janvier, France), weighing in the target range of 40-50 g, were used in this study. These mice were housed in a temperature (19.5-24.5° C.) and relative humidity (45-65%) controlled room with a 12-hour light/dark cycle, with ad libitum access to filtered tap-water and irradiated pelleted laboratory chow (SAFE, France) throughout the study. Upon receipt at animal facilities, they were housed 4 per cage covered with filtered caps and at least a 5-day acclimation period was observed.
# as §2
# Collection of samples for analysis: One day before beginning the treatment (T0), non fasted db/db mice were weighed and blood samples were collected through the retro-orbital plexus (about 300 μL/mouse) under isoflurane anesthesia. Similarly, at day 5 (T5), day 12 (T12), day 19 (T19) and day 26 (T26), two hours after the last administration, blood samples were collected through the retro-orbital plexus under isoflurane anesthesia in non fasted mice.
# as §3
# Aspartate amino-transferase (AST) and alanine amino-transferase (ALT) activities were determined with an AST kit (ref. 442665, Beckman Coulter, France), an ALT kit (ref. 442620, Beckman Coulter, France), using a Synchron CX4 analyzer.
# [6] = day 0, before treatment, NT-4/5 20 mg/kg s.c., Rosiglitazone 3 mg/kg p.o.
# [7] = day 5, NT-4/5 20 mg/kg s.c., Rosiglitazone 3 mg/kg p.o.
# [8] = day 5 vs day 0, NT-4/5 20 mg/kg s.c., Rosiglitazone 3 mg/kg p.o.
# [9] = day 12, NT-4/5 20 mg/kg s.c., Rosiglitazone 3 mg/kg p.o.
# [10] = day 12 vs day 0, NT-4/5 20 mg/kg s.c., Rosiglitazone 3 mg/kg p.o.
# [11] = day 19, NT-4/5 20 mg/kg s.c., Rosiglitazone 3 mg/kg p.o.
# [12] = day 19 vs day 0, NT-4/5 20 mg/kg s.c., Rosiglitazone 3 mg/kg p.o.
# [13] = day 26, NT-4/5 20 mg/kg s.c., Rosiglitazone 3 mg/kg p.o.
# [14] = day 26 vs day 0, NT-4/5 20 mg/kg s.c., Rosiglitazone 3 mg/kg p.o.
molecule,measurement,setting,value
B1,"body weight expressed as % of baseline, mean",[1]; Day 11,84.1 % of baseline
same,"body weight, mean",[1]; Day 11,35.6 g
same,"body weight expressed as % of baseline, mean",[1]; Day 12,83.3 % of baseline
same,"body weight, mean",[1]; Day 12,35.2 g
same,"body weight expressed as % of baseline, mean",[1]; Day 13,80.8 % of baseline
same,"body weight, mean",[1]; Day 13,34.2 g
same,"body weight expressed as % of baseline, mean",[1]; Day 14,79.8 % of baseline
same,"body weight, mean",[1]; Day 14,33.7 g
same,"body weight expressed as % of baseline, mean",[1]; Day 15,80.1 % of baseline
same,"body weight, mean",[1]; Day 15,33.9 g
same,"body weight expressed as % of baseline, mean",[1]; Day 18,83.1 % of baseline
same,"body weight, mean",[1]; Day 18,35.1 g
same,"body weight expressed as % of baseline, mean",[1]; Day 19,84.4 % of baseline
same,"body weight, mean",[1]; Day 19,35.7 g
same,"body weight expressed as % of baseline, mean",[1]; Day 20,84.1 % of baseline
same,"body weight, mean",[1]; Day 20,35.6 g
same,"body weight expressed as % of baseline, mean",[1]; Day 21,85.6 % of baseline
same,"body weight, mean",[1]; Day 21,36.2 g
same,"body weight expressed as % of baseline, mean",[1]; Day 22,86.4 % of baseline
same,"body weight, mean",[1]; Day 22,36.5 g
same,"body weight expressed as % of baseline, mean",[1]; Day 25,91.7 % of baseline
same,"body weight, mean",[1]; Day 25,38.8 g
same,"body weight expressed as % of baseline, mean",[1]; Day 26,93.1 % of baseline
same,"body weight, mean",[1]; Day 26,39.4 g
same,effect on blood level of NEFA,[2]; 20 mg/kg s.c.,did not seem to have affected the blood level of NEFA significantly
same,NEFA levels T0,[2]; [6],0.788 mM
same,NEFA levels T5,[2]; [7],0.780 mM
same,NEFA % effect T5-T0,[2]; [8],−0.1%
same,NEFA levels T12,[2]; [9],0.679 mM
same,NEFA % effect T12-T0,[2]; [10],−8.5%
same,NEFA levels T19,[2]; [11],0.521 mM
same,NEFA % effect T19-T0,[2]; [12],−30.4%
same,NEFA levels T26,[2]; [13],0.411 mM
same,NEFA % effect T26-T0,[2]; [14],−44.5%
same,blood glucose levels T0,[3]; [6],36.95 mM
same,blood glucose levels T5,[3]; [7],15.78 mM
same,blood glucose % effect T5-T0,[3]; [8],−56.4%
same,blood glucose levels T12,[3]; [9],13.56 mM
same,blood glucose % effect T12-T0,[3]; [10],−62.6%
same,blood glucose levels T19,"[3]; day 19 (dosing stopped day 12), NT-4/5 20 mg/kg s.c., Rosiglitazone 3 mg/kg p.o.",12.65 mM
same,blood glucose % effect T19-T0,[3]; [12],−65.2%
same,blood glucose levels T26,"[3]; day 26 (dosing stopped day 12), NT-4/5 20 mg/kg s.c., Rosiglitazone 3 mg/kg p.o.",22.50 mM
same,blood glucose % effect T26-T0,[3]; [14],−37.9%
same,level of blood glucose lower than that of vehicle treated mice,"[3]; throughout the rest of the study, 20 mg/kg s.c.",at least 50%
same,triglycerides levels T0,[4]; [6],1.51 mM
same,triglycerides levels T5,[4]; [7],0.73 mM
same,triglycerides % effect T5-T0,[4]; [8],−48.8%
same,triglycerides levels T12,[4]; [9],0.84 mM
same,triglycerides % effect T12-T0,[4]; [10],−40.9%
same,triglycerides levels T19,[4]; [11],1.07 mM
same,triglycerides % effect T19-T0,[4]; [12],−28.0%
same,triglycerides levels T26,[4]; [13],1.13 mM
same,triglycerides % effect T26-T0,[4]; [14],−25.2%
same,blood triglyceride levels relative to normal level,[4]; normal level 1.2±0.08 mM in C57BL/6J mice,reduced to below normal level
same,"effect on AST and/or ALT levels, or AST/ALT ratios",[5]; 20 mg/kg s.c.,did not have significant effect
same,ALT/AST ratio T0,[5]; [6],1.17
same,ALT/AST ratio T5,[5]; [7],0.73
same,ALT/AST ratio % effect T5-T0,[5]; [8],−32.7%
same,ALT/AST ratio T12,[5]; [9],0.87
same,ALT/AST ratio % effect T12-T0,[5]; [10],−26.6%
same,ALT/AST ratio T19,[5]; [11],0.67
same,ALT/AST ratio % effect T19-T0,[5]; [12],−45.6%
same,ALT/AST ratio T26,[5]; [13],0.99
same,ALT/AST ratio % effect T26-T0,[5]; [14],−17.6%
